Test results reported in patent US20210395381A1 (OSSIANIX, published 2021).
Where a chain is given by its changes, count along the chain named.

B1: Clone 8.53 (VNAR)
VNAR: ARVDQTPQTITKETGESLTINCVLRDSNCALPSTYWYRKKSGSTNEESISKGGRYVETVNSGSKSFSLRINDLTVEDSGTYRCKVIAQLSSILRGCNYAWLDVYGDGTAVTVNA
notes: VNAR on phage; Clone 8 framework
B2: Clone 8.51 (VNAR)
VNAR: B1 VNAR with I92D, L93H, R94P, A99R, W100K, L101H
notes: as for B1
B3: Clone 8.64 (VNAR)
VNAR: B1 VNAR with S90A, S91F, I92W, A99R, W100K, L101H
notes: as for B1
B4: Clone 8.81 (VNAR)
VNAR: B1 VNAR with I92A, L93P, R94D, A99R, W100K, L101H
notes: as for B1
B5: Clone 8.77 (VNAR)
VNAR: B1 VNAR with N97H, Y98L, A99W, W100K, L101H
notes: as for B1
B6: Clone 8.59 (VNAR)
VNAR: B1 VNAR with I92H, L93D, R94H, A99R, W100K, L101H
notes: as for B1
B7: Clone 8.74 (VNAR)
VNAR: B1 VNAR with I92L, L93Q, R94D, N97I, A99R, W100K, L101H
notes: as for B1
B8: Clone 8.72 (VNAR)
VNAR: B1 VNAR with N97S, Y98G, A99V, W100K, L101H
notes: as for B1
B9: Clone 8.75 (VNAR)
VNAR: B1 VNAR with S90T, S91E, I92M, A99R, W100K, L101H
notes: as for B1
B10: Clone 8.62 (VNAR)
VNAR: B1 VNAR with W100A, L101G
notes: as for B1
B11: Clone 8.89 (VNAR)
VNAR: B1 VNAR with R94F, N97D, A99R, W100K, L101H
notes: as for B1
B12: Clone 8.66 (VNAR)
VNAR: B1 VNAR with A99L, W100A, L101H
notes: as for B1
B13: Clone 8.47 (VNAR)
VNAR: B1 VNAR with I86Q, A87T, Q88T, A99R, W100K, L101H
notes: as for B1
B14: Clone 8.56 (VNAR)
VNAR: B1 VNAR with N97T, Y98F, A99D, W100K, L101H
notes: as for B1
B15: Clone 8.58 (VNAR)
VNAR: B1 VNAR with I92A, L93G, R94M, A99R, W100K, L101H
notes: as for B1
B16: Clone 8.65 (VNAR)
VNAR: B1 VNAR with L93H, R94D, A99R, W100K, L101H
notes: as for B1
B17: Clone 8.98 (VNAR)
VNAR: B1 VNAR with I86L, A87E, Q88K, A99R, W100K, L101H
notes: as for B1
B18: Clone 8.52 (VNAR)
VNAR: B1 VNAR with N97D, Y98R, A99W, W100K, L101H
notes: as for B1
B19: Clone 8.88 (VNAR)
VNAR: B1 VNAR with R94F, N97A, A99R, W100K, L101H
notes: as for B1
B20: Clone 8.73 (VNAR)
VNAR: B1 VNAR with R94K, A99R, W100K, L101H
notes: as for B1
B21: Clone 8.87 (VNAR)
VNAR: B1 VNAR with L89F, R94C, G95S, N97R, A99R, W100K, L101H
notes: as for B1
B22: Clone 8.82 (VNAR)
VNAR: B1 VNAR with N97V, A99P, W100K, L101H
notes: as for B1
B23: Clone 8.91 (VNAR)
VNAR: B1 VNAR with I92R, L93K, R94G, A99R, W100K, L101H
notes: as for B1
B24: Clone 8.49 (VNAR)
VNAR: B1 VNAR with Q88E, L89M, S90G, A99R, W100K, L101H
notes: as for B1
B25: Clone 8.76 (VNAR)
VNAR: B1 VNAR with I86Q, A87E, Q88E, A99R, W100K, L101H
notes: as for B1
B26: Clone 8.60 (VNAR)
VNAR: B1 VNAR with R94L, G95T, N97L, A99R, W100K, L101H
notes: as for B1
B27: Clone 8.96 (VNAR)
VNAR: B1 VNAR with I92M, L93Y, R94K, A99R, W100K, L101H
notes: as for B1

Key:
recombinant mouse TfR-1 = target: T1, recombinant mouse TfR-1 (mouse, UniProt Q62351 89-763); test: phage ELISA
T1 construct: Recombinant protein coated at 1 ug/ml in the phage ELISA; also called mTfR1; mouse transferrin receptor-1

recombinant human TfR-1 = target: T2, recombinant human TfR-1 (human, UniProt P02786 89-760); test: phage ELISA
T2 construct: Recombinant protein coated at 1 ug/ml in the phage ELISA; also called hTfR1; human transferrin receptor-1
T2 sequence (P02786 89-760 limits assumed): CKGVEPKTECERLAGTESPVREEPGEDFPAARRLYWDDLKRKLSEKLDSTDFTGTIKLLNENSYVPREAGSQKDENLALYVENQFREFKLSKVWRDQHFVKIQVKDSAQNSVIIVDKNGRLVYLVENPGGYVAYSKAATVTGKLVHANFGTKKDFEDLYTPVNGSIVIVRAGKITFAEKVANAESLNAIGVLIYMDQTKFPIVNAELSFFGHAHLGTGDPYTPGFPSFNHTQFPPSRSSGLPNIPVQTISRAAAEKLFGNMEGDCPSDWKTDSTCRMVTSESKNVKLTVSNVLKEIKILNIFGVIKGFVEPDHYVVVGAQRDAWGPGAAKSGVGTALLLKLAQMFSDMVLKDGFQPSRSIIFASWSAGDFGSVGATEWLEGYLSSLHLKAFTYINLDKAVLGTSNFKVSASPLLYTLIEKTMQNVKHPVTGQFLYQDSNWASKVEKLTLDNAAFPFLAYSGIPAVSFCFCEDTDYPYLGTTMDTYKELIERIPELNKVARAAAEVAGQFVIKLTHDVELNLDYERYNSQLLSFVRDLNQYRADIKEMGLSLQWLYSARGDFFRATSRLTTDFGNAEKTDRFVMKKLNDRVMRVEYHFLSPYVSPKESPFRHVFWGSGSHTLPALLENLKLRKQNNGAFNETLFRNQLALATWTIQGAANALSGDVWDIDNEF

T1 sequence (Q62351 89-763 limits assumed): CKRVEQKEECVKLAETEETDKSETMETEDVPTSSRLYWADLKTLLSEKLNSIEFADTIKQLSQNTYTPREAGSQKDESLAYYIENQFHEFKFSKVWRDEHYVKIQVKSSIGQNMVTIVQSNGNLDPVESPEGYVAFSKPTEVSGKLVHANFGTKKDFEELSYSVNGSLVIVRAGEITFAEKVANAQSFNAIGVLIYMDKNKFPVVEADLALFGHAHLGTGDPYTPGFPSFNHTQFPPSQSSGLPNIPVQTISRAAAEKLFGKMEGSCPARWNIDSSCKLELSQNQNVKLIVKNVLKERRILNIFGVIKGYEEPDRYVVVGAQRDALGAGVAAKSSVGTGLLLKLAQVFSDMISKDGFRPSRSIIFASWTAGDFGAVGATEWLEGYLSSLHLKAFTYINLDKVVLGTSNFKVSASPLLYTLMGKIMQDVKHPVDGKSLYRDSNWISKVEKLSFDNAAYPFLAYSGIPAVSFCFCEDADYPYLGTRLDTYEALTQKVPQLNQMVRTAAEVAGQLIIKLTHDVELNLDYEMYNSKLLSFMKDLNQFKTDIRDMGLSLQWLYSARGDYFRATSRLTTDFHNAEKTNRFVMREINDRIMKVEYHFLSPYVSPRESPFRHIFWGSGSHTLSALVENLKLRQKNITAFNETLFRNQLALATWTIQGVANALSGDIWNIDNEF

Binder	A450 (recombinant mouse TfR-1)	A450 (recombinant human TfR-1)
B1	0.065 A450	0.051 A450
B2	0.065 A450	0.058 A450
B3	0.062 A450	0.083 A450
B4	0.057 A450	0.065 A450
B5	0.058 A450	0.055 A450
B6	0.063 A450	0.073 A450
B7	0.059 A450	0.061 A450
B8	0.06 A450	0.063 A450
B9	0.059 A450	0.049 A450
B10	0.063 A450	0.056 A450
B11	0.055 A450	0.048 A450
B12	0.062 A450	0.052 A450
B13	0.067 A450	0.072 A450
B14	0.064 A450	0.051 A450
B15	0.063 A450	0.059 A450
B16	0.062 A450	0.081 A450
B17	0.053 A450	0.055 A450
B18	0.065 A450	0.049 A450
B19	0.055 A450	0.05 A450
B20	0.059 A450	0.051 A450
B21	0.055 A450	0.07 A450
B22	0.057 A450	0.048 A450
B23	0.055 A450	0.071 A450
B24	0.065 A450	0.06 A450
B25	0.059 A450	0.05 A450
B26	0.063 A450	0.073 A450
B27	0.054 A450	0.051 A450
